Experimental findings from patent US5968815 are described below.

One test deals with mouse CD4 (L3T4) (mouse) (UniProt P06332).
For another test, the target named is mouse CD8 (LYT2) (mouse) (UniProt P01731).
For test [1], the target named is Nef (SIV) peptide 1-15 (SIV strain Mac251).
Test [2] addresses Nef (SIV) peptide 16-30 (SIV strain Mac251).
Test [3] has as its target Nef (SIV) peptide 221-235 (SIV strain Mac251).
The target in test [4] is Nef (SIV) peptide 40-60 (SIV strain Mac251).
Test [5] deals with Nef (SIV) peptide 84-96 (SIV strain Mac251).

In the case of “anti-CD4 monoclonal antibody, hybridoma GK 1-5 (rat anti-mouse L3T4)”, the inhibition of the proliferative response of LN cells to beta-galactosidase in the test with mouse CD4 (L3T4) (mouse) was found to be 70%.
With “anti-CD8 monoclonal antibody, hybridoma H35 17-2 (rat anti-mouse LYT2)”, in the test with mouse CD8 (LYT2) (mouse), the inhibition of the proliferative response of LN cells to beta-galactosidase turned out to be 30%.
Consider “lymph node cells of Balb/c mice immunised with non-recombinant BCG strain 1173P2 (cells without a defined receptor)”, for which the proliferation of lymph node cells (cpm) in test [1] was below 2500 cpm; in test [2] it was below 2500 cpm; in test [3], below 2500 cpm; in test [4], below 2500 cpm; in test [5], 5000 cpm.
On to “lymph node cells of unimmunized rats (control of FIG. 14) (cells without a defined receptor)”, for which the proliferation of lymph node cells (cpm) in test [1], in test [2], in test [3], in test [4] and in test [5] was below 250 cpm in each case.
